We go through 21 sequences from the DeepSol protein solubility set.

The data set in a line: soluble on expression in E. coli; label from the status in PepcDB or PDB records.
As for “GDLSNYFSNLSRLNCPQTIMTFRLFDPGFPFTDIEVNADIVLDRDAEKLPENWLQQLTGLSDTDVSMTAKGNVLSGQFLLPDFNLKLQDKSHAYLLLQGMDLEEVLRIQPQIGIYANGLFDGVLPVDLVDGKVSISGGQLAARAPGGLIAISGNPAVDQMRQSQPYLDFVFSALEHLAYSQLSSSFDMDNTGDATLLVEVKGRSQGIERPIHLNYSHEENMLQLFRSLQIGNDLQNRIEK”, the “soluble on expression in E. coli” value is recorded as “not soluble”.

Take “MSLMPPFLRILGIETSCDETAASIVVRHADGRGEIVSDVVLSQLEEHSAYGGVVPEIAARAHVEALDTLVEEALDQAGVKLADVDAIAATSGPGLIGGLLVGLMTGKAIAKAAGKPLYAINHLEGHALTARLTDGLSFPYLMLLVSGGHTQLVLVRGVGEYERWGTTIDDALGEAFDKTAKLLGLPYPGGPAVENAAAKGDPDRFPLPRPMVGEARLDFSFSGLKTAVRQAATAIAPLSEQDIADICASFQKAVSRTLKDRIGRGLARFKVEFPHINGEPALVVAGGVAANQEIRQTLQALCDTHGFRFVAPPHRLCTDNAAMIAWAGLERMAEGRQADALEVAPRSRWPLDGSAETLIGFGKRGAKAEGHHHHHH”: the “soluble on expression in E. coli” value is “not soluble”.

On to “MKLAAKTFTPSTADLPFTDAGASEDSGMANKPGEPAFQLWLDVKKVVFPTTSEPSYVNLRLHNPTDKRITFKVRCTSAELFRVQPPIAFINAGATVNLVMWSANTHLQPEKKHYFAFYHKNASPSARQSPPLWKDGLKDAEGVRRIPVVFLPPSS”, for which the “soluble on expression in E. coli” value is on record as “not soluble”.

Turning to “SSPATPVPPDSILESPFEEMALVRGGWLWRQSSILRRWKRNWFALWLDGTLGYYHDETAQDEEDRVVIHFNVRDIKVGQECQDVQPPEGRSRDGLLTVNLREGSRLHLCAETRDDAIAWKTALMEANSTPAPAGATVPPRSRRVCPKVRCTTLSWNPCKVERRIWVRVYSPYQDYYEVVPPNAHEATYVRSYYGPPYAGPGVTHVIVREDPCYSSGAPLAMGMLAGAATGAALGSLMWSPCWF”, the “soluble on expression in E. coli” value is on record as “not soluble”.

As to “MEIAKEIKDFLTTRRARITPDQVGLPTGGRRRVAGLRREVVAMLAGVSAEYYVQIERGGVSGVSDEVLYAIATALRLDDEETKHLFTLARAASTRPRRRIAPRARVEVPEPVQALVDAMITAPAVVQNGHLDIVAVNALGRALYADVFDRSDGVPNLARFIFLDRRAGETFPDWNHAADDAVAILRSEAARSPYSAAVTGLVGELATRSDEFRTRWATHDIKAHRRGTKRFHHPVVGDLTLRFEALEVASAAGLTLFGFTAEPGSPSEESLRLLSSWAASDRPEHQHS”, the “soluble on expression in E. coli” value is “not soluble”.

Regarding “MSISISYSTTYSGWTVADYLADWSAYFGDVNHRPGQVVDGSNTGGFNPGPFDGSQYALKSTASDAAFIAGGDLHYTLFSNPSHTLWGKLDSIALGDTLTGGASSGGYALDSQEVSFSNLGLDSPIAQGRDGTVHKVVYGLMSGDSSALQGQIDALLKAVDPSLSINSTFDQLAAAGVAHATPAA”, the “soluble on expression in E. coli” value is on record as “soluble”.

With “MAHHHHHHMHSSPFPSLFLVSRNGAHASRFSVVQLEYITSTCFSLLQVVTYRVATCSHGTMTALADEVREKYSLSLSSDYVERCVQAKASLTSLELYQKSLWENLRDICGTSLLPYGIGAQVSATLPNAVVMQINASRDATQPLRPCADASDEEAFLNAAFQRNSSKRLLRLQLTDGNVEISALELSTLCVFQGIPTPGEKLLIHKGAEVRNGCIILSEGSVSVLGGEVRQLKQDFLANRRRLEVGYQTSNGLDGAPRFAPLQVGHHYRSSVANSGAPVDIGHQGGASPYHANERGGRRSNYSRNGGGGGRAQQAGDNYEGRVSAGDHGRGGRGGRGGRGWDSSYGGDGWRGHGRRGGGYVRRGDGGRVDSRGCVGGASYHVDTANFQPPAEKFPEINEANFPRLV”, the “soluble on expression in E. coli” value was “not soluble”.

For the sequence “MPSLSKEAALVHDALVARGLETPLRPPMDELDNETRKSLIAGHMTEIMQLLNLDLSDDSLMETPHRIAKMYVDEIFAGLDYANFPKITLIENKMKVDEMVTVRDITLTSTCEHHFVTIDGKATVAYIPKDSVIGLSKINRIVQFFAQRPQVQERLTQQILTALQTLLGTNNVAVSIDAVHYCVKARGIRDATSATTTTSLGGLFKSSQNTRQEFLRAVRHHP”, the “soluble on expression in E. coli” value is given as “not soluble”.

On to “MGSDKIHHHHHHMRVLLLSDIHSSTQNLEKILKAAEYDAVFIAGDLTQFRPKDAKVVDEIISEQTDSCLAVHGNCDHEAILGEKYKALKFIHGKSVEFDGYTVHGVGGSGITPFNTPSEYTEREILEIMDNFVLRDFNILLSHCPPKGFLDRTYSGVHAGCEAIRERMIEFDVILCGHIHESHGVVDSPQLIVNPGPVMWGRFAVIDVEKKVVELRKL”, for which the “soluble on expression in E. coli” value was “not soluble”.

For the sequence “MCLVALAWKTHPRWRLLLAGNRDEFHERPTAPLAQWAAPAERVLAGRDLRSGGSWVGLGLDGRAAVVTNVRDPLATASGRSRGHLIADYLSGSADAATYARELAAAGQEFPPFNLLLCDAERCEHLSNHPALARALAPGIHGMSNGPLDAHWPKTTALTHALAAWCDSGSDDLQPLWTALANPATAADADLPHTGVDRATERLLSAAFIRGASYGTRASTIVAVDHHGHGFIHERRFGPDGVFQGETRLDVAGMHLEHHHHHH”, the “soluble on expression in E. coli” value is reported as “not soluble”.

On to “MSLAIIEEARSGQITDEMKEISKLEGIPVEKVRNRISECKIILIRNAKYPSKKLVPIGKGLTTKVNINIGTSDEVVNLQMELEKVKVANRWGDTLMDLSTGGDLDDIRREIIRASELPVGTVPVYQVFIESFKKKSGGAYFTEDELLSTVEKHLKDGVAFMTIHAGITKELAIRALKSNRIIPIVSRGGDMIAGWMIHNNSENPYRKHWGYLLEMFKEYDAVISLGDALRPGATGDAHDEFQVGELLETARLVKSALKEGVQVMVEGPGHVPLNEIAWDVKLMKKLTGGVPYYVLGPLPIDVGAPYDHIASAIGAAISSAAGADLLCYLTPAEHLGLPTVKQVEEGAIAYRIAAHAGDVVKLGRRVRKWDDEVSYYRGKLEWDNMISRLIDPQRAYQVYTQFGIPKVKACTMCGGYCPMMWAMDQVRKIGSSSSLEGHHHHHH”, for which the “soluble on expression in E. coli” value is given as “soluble”.

“MAVNPATGKSDFVMMSEQQELGMGARYNQEILKQFPRYNDEKLQAYVQRVGERVARSSHRSNLQYHFTVIDSPDINAFALPGGYIYIHRGLIAYLGSEAELAAVLGHEVGHVTARHSVRQQSQASAWNILGQAVAIGTGVGAAGDLANVLGTAFVRGYGRDMELEADGLGAQYLARAGYDPTAMIQVVRVLKNQEDFAREEAARNGQAVQAGGYHGLFDTHPDNDRRLQEVVGPARQLANGQQEVGREVFLRHLEGMPFGDSASAGVRRGQNFYHAELDFTLSYPAGWKILNQPSALLGYPADEQSFIGMKLVPHDSRLTPAEFLRKNAGQRLAQEESLKQAGLNGYTAVVPGNPARRVAVIYQGDRAYLFVGVVKVGSLETQDDRFLSVIRSFRPLRDKERALAQPRRLHLVQVKAGQTLEQLAAGGEGSLSDSVARLRLLNDLYPSGEPRPGDWLKVVRLEHHHHHH”: the “soluble on expression in E. coli” value is recorded as “not soluble”.

As to “MGSDKIHHHHHHQLVLAPADAERYAQNSFPEYLELLTLQNDAAVPADIQRNADWLEKAFQKRGFTTQTLTNGDKPLVYAEFGAAKSDRKTILFYMHFDGQPVNPSEWQTPPWQPVLKEKDAAGKWQTLPESRLLKGDINPEWRIFARASADDKGPIVMFLAAMDAMKEKGVEPAVNIKVLLDSEEEKGSPGLTTVMADHLMLLKSDGMVIYDGAMPSSNRPGINFGNRGSIQIDMTVFGANAAAHSGGYGNVIPNPVQNLATLLASMKDADGKVTIPGYYDRVTLSDSDKKQVAETSPPAGSLEKRFGVAQLDKVAGNAAEAVQYPSLDILGIKAGETGKKASNAIPSTATASVNIRTVPETPPDDMYALLRQYIASKGFHIIAGESPTQAEREQYPHLISLHLTAYPSSAYAARTEIDSPLGHWAVATTTAPRGIAPEKNRMMGGTLPMSGAVSVLKVPYVIVPLVNADNNQHSFDENLRLGNYLEGIRTIVAMATTPLS”, the “soluble on expression in E. coli” value is on record as “not soluble”.

Take “MGAGPSDHRAITLEGTTVMVPVYNSTAQQSPYQLTTTADGGVALHHQGELTTTLETPPEPHFYNLQTAESIPYKAIALLHGKDVLATTLQQTCIRFRDRSESCQFCAIEQSLTSGQTIVRKTPEQVAEVVAAAVRLDGVRQLVMTTGTPNSRDRGARLMAETAAAVKAVVDIPIQAQCEPPDDPVWFSRMKAAGVNSLGMHLEVVEPEVRRRILPGKSELTLEHYYRAFEQAVAVFGRGEVSTYLLAGLGDSADSLIDCSRRLIAIGVYPFIVPFVPIAGTPLERHPAPTTAFMLQIYEAVGALLHDSDLRSAAMSAGLEHHHHHH”: the “soluble on expression in E. coli” value was “not soluble”.

With “MKTYNIPVEATLEVIGGKWKVVILCHLKKDKKRTCELKQLMSGITQKMLTQQLRELEEDGVIERKVYNQVPPKVEYSLTDYGHSLDSILDTLCNWGENHLEKNGNTSMLITAAE”, the “soluble on expression in E. coli” value is given as “not soluble”.

For “MMPYILVFMVCIFLTSISSRKKIIPLLLSCLILSLFAGFRDKNIGSDTDFYPHWYISEIRYIHNLIDLITIETERNLDKGYLFLYWIASWIGNQ”, the “soluble on expression in E. coli” value is given as “not soluble”.

In the case of “MKQEIIIAGFGGQGVLSMGKILAYSGLMEDKEVTWMPAYGPEQRGGTANVTVIVSDERISSPILSQYDTAIILNQPSLEKFEGKIKPGGILIYDGYGIIEPPTRKDIQIYRIDAMDAANEKGMAKTFNMIVLGGLLKLRPVVSIESVIKALRKTLPERHHHLIPMNEEAIRIGMEIIK”, the “soluble on expression in E. coli” value is “not soluble”.

Regarding “MGSDKIHHHHHHMAMDRVTKQLTVSKLLSLANFIPKDSQKILFYSTPDVSDNALALFKYISEKTDDYELAWLLNNPNSPSVKTLKEKYPEVKTIYLYSLEGLKELLRSKFVVLTDVLPLTPHRGQKIIQLWHGLPGKKTGYEHPLNVKDLYLYMDKWTTDFVTTSELVVGAFVRQFMINPRKFRILGQPRNDGLFDNLKDAKNILSSILGRDVEDYDHLILYAPTYRYTSYMKDFQASVNVVKTLFHHKFLEFLKEENILLVIKPHKLVADVIKPEIKENSNVILLTDEHLQSRLITINDVMGAFDILITDYSSIFEDYILLERPILFYLPDREALERKSGFLLPYEFFAPGRKPETLEGLIHALKIYMEDPEVDSEWRKTVKNLLYEVGKDNKSSERIYNLIIKQK”, the “soluble on expression in E. coli” value is “not soluble”.

On to “MLPYMAYRYVKNKREKNQREMDSDLDSMVRSIVPDKTVICVPNVAAKLGEDSKEYIPGTLSIVEKSSGVFIEWKPSEDAETSWVMTSDDGNTEMVHARSPEEKQKCGARVAFSMDVNDLSSFRNDEPKRGSGGFPSIRLICRDGSSQVPLFFKNTTTAEFLDRLQGYITLRRSHRDSHLVIVVDQKSEALAKSVSMLDENGDILSRFMQNPYMTAMTGFSKITSFVQDQVIPSVLNDTDAVTQEEKIRLMRELRLAEEQMRVHSDAAGEFEVVTQLELPPRPEIYRELPVSKDLWNSFKLSNGSYDPMKLHHLKMNVFRGGLNAELRKEAWKCLLGYRQWHESDTDFQTRRAELAKQYENMKKQWMSVTEDQEKRFTKFVKRKSLVGEEIEND”, for which the “soluble on expression in E. coli” value is listed as “not soluble”.

For the sequence “MSHGSGLVRTTCSSGGALGPAQPSEGLLDRVYPLTHGALFKVAQMGYRLLVAGFQNCRGIDIY”, the “soluble on expression in E. coli” value is given as “not soluble”.

“MPDPQISAIICTHNRDTYLGAAIDSLLVQDFAGEFEVVVIDNGSSDRTREVVEQRSSDSRLKYVFEPTIGLSVARNTGAKFASAEILAYLDDDAVASTHWLQVLYAAYQNYPQLAIAGGKVTLLWPPDTQPPRWLSSGLAGNLGAYDLGDKVVYIQQPGLTPRGLNYSIRRTFLEEIGGFDPHLGRVGKNLLSNEELQMTELALTGGWQVAYLPEALVAHNVAPERLNRSWFLNRGWWQGISECYREQLSGKAGVGQLSRGGERLARGLYKAFRYFSNPAERFDNLVYAYGQIGYLNAVLQGLLFTANNKGSQLEHHHHHH”: the “soluble on expression in E. coli” value is listed as “soluble”.
